Measured values from patent US20190241663A1 (Genentech, published 2019).

T1: S114A human B7-H4 (full-length membrane construct, glycosylation site N112-S114 removed) (human, UniProt Q7Z7D3 29-282)
T1 construct: Transiently transfected into 293 cells; also called mutated S114A human B7-H4
T1 sequence: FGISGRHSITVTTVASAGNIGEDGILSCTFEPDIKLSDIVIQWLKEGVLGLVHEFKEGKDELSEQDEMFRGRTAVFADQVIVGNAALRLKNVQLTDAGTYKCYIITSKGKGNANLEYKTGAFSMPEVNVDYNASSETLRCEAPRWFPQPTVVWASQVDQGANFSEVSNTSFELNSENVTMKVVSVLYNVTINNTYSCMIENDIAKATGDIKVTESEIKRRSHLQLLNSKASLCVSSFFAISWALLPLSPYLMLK

T2: irrelevant (Ig-V)-B7-H4 (Ig-C; D158-G236 including TM/CD D237-K282) chimeric membrane protein (construct-88B) (human, UniProt Q7Z7D3 158-282)
T2 construct: Transiently expressed on 293 cells; also called B7-H4 Ig-C domain; not shown: irrelevant Ig-V domain; an N-terminal or cytoplasmic tag was attached but is not described
T2 sequence: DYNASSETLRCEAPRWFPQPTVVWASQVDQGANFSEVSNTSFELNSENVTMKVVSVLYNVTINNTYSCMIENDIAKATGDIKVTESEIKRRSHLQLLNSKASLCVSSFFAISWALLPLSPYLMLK

B1: chimeric antibody ch9B9 (antibody, V domains shown)
VH: QVQLQQSGAELMKPGASVKMSCKATGYTFSSYWIEWVKQRPGHGLEWIGEILPGTSITTYNAKFKVKATFTADTSSNTAYMQLSSLTSEDSAVYFCARYYFGSSSFYFDYWGQGTSLTVSS
VL: QAVVTQESALTTSPGDTVTLTCRSSTGAVTTSNYANWVQEKPDHLFTGLIGGTNNRVPGVPARFSGSLIGDKAALTITGAQTEDEAMYFCALWYNNHWVFGGGTKLE
B2: ch1D11, slightly modified version with light chain C43G (antibody, human IgG1, V domains shown)
VH: QVQLQQSGAELVRPGTSVKMSCKASGYTFTSYWIGWAKQRPGHGFEWIGDIYPGGGYTNYNEKFKGKATLTADKSSSTAYMQFSSLTSEDSAIYYCARLDGSSYRGAMDSWGQGTSITVSS
VL: DIQMTQSPSSLSASLGGKVTITCKASQGFNKYVAWYQHKPGQGPRLLIHYTSTLQPGIPARFSGSGSGRDYSFSISNLEPEDSATYFCLQYGNLLYAFGGGTKLEIKR
notes: Human IgG1 / kappa chimeric; also called ch1D11 (C43G light chain)
B3: chimeric antibody ch32D6 (antibody, V domains shown)
VH: EVQLQQSGPDLVKPGASVKISCKASGYSFTGYYIHWMKQSHGKSLEWIGRVNPNNGDPIYNQKFRGKAILTVDQSSNTAYMELRSLTSEASAVYYCARVLFYYGSPFAYWGQGTLVTVSA
VL: DIVMTQSPSSLIVTAGEKVTMSCRSSQSLFDSGSQRNYLTWFHQKPGRPPKLLIYWASTRESGVPDRFTGSGSGTDFTLTISSVQTEDLAVYFCQNDYSFPFTFGSGTKLEEK
B4: chimeric antibody ch22C10 (antibody, V domains shown)
VH: QVQLQQPGAELVKPGTSVKLSCKASGYTFTNFWIHWVIQRPGQGLEWIGEIDPSDSYTNYNQKFKGKATLTVDKSSNTAYMQLSSLTSEDSAVYYCSREITTVDYWGQGTTLTVSS
VL: QIVLTQSPTIMSASPGEKVTLTCSATSSISYMHWYQQKPGTSPKGWIYDTSKLAHGVPARFSGSGSGTSYSLTISSMEAEDAATYYCHQRRSYPFTFGSGTKLEIK
notes: also called ch2210; parental 22C10 antibody

What follows are binders tested against T1, S114A human B7-H4 (full-length membrane …) (assay: FACS on 293 cells transfected with S114A human B7-H4, against isotype control).
From the text: The B7-H4 (Ig-V) domain contains a single N-linked glycosylation site (N112-S114), and to determine whether glycosylation influences binding of the antibodies to B7-H4, S114 was substituted with alanine using standard site-specific mutagenesis to prevent glycosylation in the full-length human B7-H4 membrane construct.

Row | fold binding over isotype control [fold] | Binder
1 | 100 | B1
2 | 100 | B2
3 | 100 | B3
4 | 100 | B4

Each binder was assayed against T2, irrelevant (Ig-V)-B7-H4 (Ig-C; …) (assay: FACS on 293 cells transiently transfected with construct-88B, dye-labeled antibody).
From the text: To determine whether the B7-H4 antibodies bind to either the Ig-V or Ig-C domain of B7-H4, chimeric Ig domain molecules were engineered that contain either a B7-H4 (IgV; G28-F150 including spacer S151-V157)—irrelevant (Ig-C) (construct-88) or an irrelevant (Ig-V)-B7-H4 (Ig-C; D158-G236 including TM/CD D237-K282) (construct-88B) membrane protein using standard molecular cloning methods. N-terminal or cytoplasmic tags were attached to confirm that 293 cells transfected with these constructs express protein on the cell membrane (data not shown). Briefly, 293 cells were transiently transfected with constructs 88 & 88B using polyfect. After 48 hours, the cells were stained with 10 μg/ml of Dylight-488 or −650 labeled ch9B9, ch1D11, ch22C10 or ch32D6 for 30-40 minutes at 4° C., washed and analyzed on a BD FACS calibur.

Row | binding result | Binder
5 | no binding (tested: 10 µg/ml) | B1
6 | no binding (tested: 10 µg/ml) | B2
7 | no binding (tested: 10 µg/ml) | B3
8 | no binding (tested: 10 µg/ml) | B4
